Laboratory results published in PMC2884070 (Journal of hepatology, 2010).

B1: full-length NS5A Con1-His (genotype 1b) (natural protein)
chain: SGSWLRDVWDWICTVLTDFKTWLQSKLLPRLPGVPFFSCQRGYKGVWRGDGIMQTTCPCGAQITGHVKNGSMRIVGPRTCSNTWHGTFPINAYTTGPCTPSPAPNYSRALWRVAAEEYVEVTRVGDFHYVTGMTTDNVKCPCQVPAPEFFTEVDGVRLHRYAPACKPLLREEVTFLVGLNQYLVGSQLPCEPEPDVAVLTSMLTDPSHITAETAKRRLARGSPPSLASSSASQLSAPSLKATCTTRHDSPDADLIEANLLWRQEMGGNITRVESENKVVILDSFEPLQAEEDEREVSVPAEILRRSRKFPRAMPIWARPDYNPPLLESWKDPDYVPPVVHGCPLPPAKAPPIPPPRRKRTVVLSESTVSSALAELATKTFGSSESSAVDSGTATASPDQPSDDGDAGSDVESYSSMPPLEGEPGDPDLSDGSWSTVSEEASEDVVCC
B2: domain 2 of JFH-1 NS5A (domain or fragment)
chain: NTYDVDMVDANLLMEGGVAQTEPESRVPVLDFLEPMAEEESDLEPSIPSECMLPRSGFPRALPAWARPDYNPPLVESWRRPDYQPPTVAGCALP
B3: full-length NS5A H77-His (genotype 1a) (natural protein)
chain: SGSWLRDIWDWICEVLSDFKTWLKAKLMPQLPGIPFVSCQRGYRGVWRGDGIMHTRCHCGAEITGHVKNGTMRIVGPRTCKNMWSGTFFINAYTTGPCTPLPAPNYKFALWRVSAEEYVEIRRVGDFHYVSGMTTDNLKCPCQIPSPEFFTELDGVRLHRFAPPCKPLLREEVSFRVGLHEYPVGSQLPCEPEPDVAVLTSMLTDPSHITAEAAGRRLARGSPPSMASSSASQLSAPSLKATCTANHDSPDAELIEANLLWRQEMGGNITRVESENKVVILDSFDPLVAEEDEREVSVPAEILRKSRRFAPALPVWARPDYNPLLVETWKKPDYEPPVVHGCPLPPPRSPPVPPPRKKRTVVLTESTLPTALAELATKSFGSSSTSGITGDNTTTSSEPAPSGCPPDSDVESYSSMPPLEGEPGDPDLSDGSWSTVSSGADTEDVVCC
B4: full-length NS5A JFH-1-His (genotype 2a) (natural protein)
chain: SGSWLRDVWDWVCTILTDFKNWLTSKLFPKLPGLPFISCQKGYKGVWAGTGIMTTRCPCGANISGNVRLGSMRITGPKTCMNTWQGTFPINCYTEGQCAPKPPTNYKTAIWRVAASEYAEVTQHGSYSYVTGLTTDNLKIPCQLPSPEFFSWVDGVQIHRFAPTPKPFFRDEVSFCVGLNSYAVGSQLPCEPEPDADVLRSMLTDPPHITAETAARRLARGSPPSEASSSVSQLSAPSLRATCTTHSNTYDVDMVDANLLMEGGVAQTEPESRVPVLDFLEPMAEEESDLEPSIPSECMLPRSGFPRALPAWARPDYNPPLVESWRRPDYQPPTVAGCALPPPKKAPTPPPRRRRTVGLSESTISEALQQLAIKTFGQPPSSGDAGSSTGAGAAESGGPTSPGEPAPSETGSASSMPPLEGEPGDPDLESDQVELQPPPQGGGVAPGSGSGSWSTCSEEDDTTVCC

Target: GST-CypA (cyclophilin A) (human, UniProt P62937 1-165)
Test: radioligand binding

Q: With B1 as the binder, how does the Kd read?
A: The Kd was 126 µM.

Q: Which Kd does the source give for B2 here?
A: Its Kd is 69 µM.

Q: With B3 as the binder, how does the Kd read?
A: The Kd was 131 µM.

Q: For B4, which Kd is on record?
A: The Kd was 108 µM.
